Reference: patent US20230183329A1, “COMBINATION THERAPY FOR TTR AMYLOIDOSIS” (Neurimmune AG, priority 2020, published 2023)

B1: NI-301.37F1: human-derived monoclonal anti-TTR antibody binding epitope TTR41-45, selective for misfolded TTR, disclosed in WO 2015/092077 A1 (antibody, V domains shown)
VH: QVQLQESGPGLVKPSETLSLTCSVSGGSIISRSSYWGWIRQPPGKGLEWIGGIYHSGNTYDNPSLKSRLTMSVDTSKNQFSLNLRSVTAADTAVYYCARIVPGGDAFDIWGQGTMVTVSS
VL: DIQMTQSPSSLSASVGDRVTIACRASQSVGTYLNWYQQKRGKAPKLLIFAASSLQSGVPSRFSGSGSGTDFTLTISSLQPEDFATYYCQQSYSSPPTFGQGTKVEIK

What was measured:
[1] = cited from earlier work
[2] = molecular target: T1, mis.WT-TTR aggregates (Homo sapiens, UniProt P02766); assay: Direct ELISA, NI-301.37F1 binding to amyloid wtTTR aggregates in presence of TTR tetramer stabilizers; settings: for EC50 value of antibody binding to TTR amyloid: versus vehicle
T1 construct: Plasma-purified wtTTR was provided as a solution at a concentration of 2 mg/mL in PBS buffer; from tissue; host or cells: human plasma
Procedure: 96 well microplates were coated for 1 hour at 37° C. with mis.WT-TTR aggregates diluted to a concentration of 10 μg/mL in PBS buffer pH7.4. Non-specific binding sites were blocked for 1 hour at room temperature (RT) with a blocking buffer containing 2% bovine serum albumin (BSA) and 0.1% tween-20 in PBS buffer. Human NI-301.37F1 antibody was diluted in duplicates to the indicated concentrations in PBS supplemented with tafamidis or diflunisal at 10 μg/mL or corresponding concentration of vehicle buffer, and incubated overnight at 4° C. Binding was determined using an anti-human IgG antibody conjugated with horseradish peroxidase (HRP), followed by measurement of HRP activity in a standard colorimetric assay.
Data were analyzed with the Prism software from GraphPad. EC50 values were estimated using non-linear regression of individual data points using log(agonist) versus response model with variable slope. Data fitting was performed with the least square regression method.
For the assessment of the binding affinity of anti-TTR antibody in the presence of TTR tetramer stabilizer direct ELISA and EC50 determination has been substantially performed in Example 3 of WO 2015/092077 A1. ELISA plates were coated for 1 h at 37° C. with amyloid wtTTR aggregates and blocked for 1 h at room temperature with blocking buffer (PBS pH 7.4, 1% BSA and 0.1% polysorbate 20).
Tafamidis and diflunisal were dissolved in vehicle (80% PBS pH 7.4, 10% ethanol, 10% polysorbate 80) and antibody NI-301.37F1 dilution series were prepared with tafamidis or diflunisal at a final concentration of 10 μg/mL or a corresponding volume of the vehicle. The concentration of 10 μg/mL is […] the maximal peak concentration in patients treated with tafamidis at 80 mg per day (˜6 μg/mL). NI-301.37F1 dilution series were incubated in the ELISA plates overnight at 4° C., and, after washes, NI-301.37F1 was detected using an horseradish peroxidase (HRP)-coupled anti-human IgG antibody and standard detection methods. Data were analyzed with the Prism software from GraphPad. […]

[3] = molecular target: T2, TTR tetramers (tetr.WT-TTR) (Homo sapiens, UniProt P02766); assay: BLI binding kinetic assay, TTR tetramers
T2 construct: Plasma-purified wtTTR was provided as a solution at a concentration of 2 mg/mL in PBS buffer; from tissue; host or cells: human plasma
Procedure: (§1) The antibody NI-301.37F1 was loaded on anti-human capture sensors at 5 μg/mL in PBS for 5 min at 25° C. The binding assay was performed with soluble WT-TTR amyloid aggregates and tetrameric WT-TTR. A baseline was performed in 1× kinetic buffer for 3 min, the association was measured for 10 min and the dissociation for another 10 min in 1× kinetic buffer, all steps performed at 25° C. with shaking at 1000 rpm. A reference sample was also included consisting in 1× kinetic buffer.
(§2) Data were analyzed in ForteBio Data Analysis 8.2 software, using reference subtraction and interstep correction between association and dissociation.
NI-301.37F1 absent binding to TTR tetramers was investigated in presence and absence of TTR stabilizers using BLI. Soluble ATTR oligomers were included in this experiment to serve as positive controls. […]

[4] = molecular target: misfolded TTR (Homo sapiens, UniProt P02766); settings: cited from earlier work
[5] = molecular target: T3, soluble ATTR oligomers (mis.WT-TTR) (Homo sapiens, UniProt P02766); assay: BLI binding kinetic assay, soluble ATTR oligomers; settings: in presence or absence of AG10 or diflunisal at 5 μg/mL
T3 construct: Plasma-purified wtTTR was provided as a solution at a concentration of 2 mg/mL in PBS buffer; from tissue; host or cells: human plasma
Procedure: as §1, §2
NI-301.37F1 absent binding to TTR tetramers was investigated in presence and absence of TTR stabilizers using BLI. Soluble ATTR oligomers were included in this experiment to serve as positive controls.
NI-301.37F1 binding to ATTR oligomers and TTR tetramers was evaluated in presence of the TTR stabilizers AG10 and diflunisal at 5 μg/mL, or in presence of corresponding vehicle buffer using BLI.

| Molecule | mean half-life ([1]; human) | maximal peak concentration ([1]; patients treated with tafamidis at 80 mg per day) [µg/mL] | binding to amyloidogenic TTR ([2]; in the presence of TTR stabilizers tafamidis and diflunisal, 10 μg/mL) | EC50 value of antibody binding to TTR amyloid ([2]; in the presence of diflunisal at 10 μg/mL) | EC50 value of antibody binding to TTR amyloid ([2]; in the presence of tafamidis at 10 μg/mL) | binding to TTR-diflunisal complexes ([3]; TTR tetramers in presence of diflunisal) | binding to TTR-tafamidis complexes ([3]; TTR tetramers in presence of tafamidis) | binding selectivity (absent binding to TTR tetramers) ([3]; in presence of TTR stabilizers (conclusion)) | binding to TTR tetramers in solution ([3]; no stabilizer) | binding affinity to misfolded TTR [4] | binding to ATTR oligomers in solution [5] |
| --- | --- | --- | --- | --- | --- | --- | --- | --- | --- | --- | --- |
| O=C(O)c1ccc2nc(-c3cc(Cl)cc(Cl)c3)oc2c1 [tafamidis] | approximately 49 hours | ~6 |  |  |  |  |  |  |  |  |  |
| B1 |  |  | maintained | increased | remained substantially unaffected | did not bind | did not bind | maintained | did not bind | sub-nanomolar range | virtually identical |
